These results are taken from paper PMC11508043 (Nature, 2023).

This test deals with Recombinant wild-type human histone H1.0 (human). Kind of test: turbidity.

B1: ProTα (unlabelled) (natural protein, human)
chain: GPMSDAAVDTSSEITTKDLKEKKEVVEEAENGRDAPANGNANEENGEQEADNEVDEEEEEGGEEEEEEEEGDGEEEDGDEDEEAESATGKRAAEDDEDDDVDTKKQKTDEDD
For B1, the “ProTα:H1 ratio at maximum phase separation” value is 1.2 ProTα:H1.
